Assay results published in publication PMC5722641 (Developmental Cell, 2017).

Molecular target: purified Drosophila E2F1 (in vitro binding assay) (Drosophila, UniProt Q27368 1-805)
Experiment: in vitro binding assay

Chain of purified Drosophila E2F1 (in vitro binding assay) (Q27368 whole entry): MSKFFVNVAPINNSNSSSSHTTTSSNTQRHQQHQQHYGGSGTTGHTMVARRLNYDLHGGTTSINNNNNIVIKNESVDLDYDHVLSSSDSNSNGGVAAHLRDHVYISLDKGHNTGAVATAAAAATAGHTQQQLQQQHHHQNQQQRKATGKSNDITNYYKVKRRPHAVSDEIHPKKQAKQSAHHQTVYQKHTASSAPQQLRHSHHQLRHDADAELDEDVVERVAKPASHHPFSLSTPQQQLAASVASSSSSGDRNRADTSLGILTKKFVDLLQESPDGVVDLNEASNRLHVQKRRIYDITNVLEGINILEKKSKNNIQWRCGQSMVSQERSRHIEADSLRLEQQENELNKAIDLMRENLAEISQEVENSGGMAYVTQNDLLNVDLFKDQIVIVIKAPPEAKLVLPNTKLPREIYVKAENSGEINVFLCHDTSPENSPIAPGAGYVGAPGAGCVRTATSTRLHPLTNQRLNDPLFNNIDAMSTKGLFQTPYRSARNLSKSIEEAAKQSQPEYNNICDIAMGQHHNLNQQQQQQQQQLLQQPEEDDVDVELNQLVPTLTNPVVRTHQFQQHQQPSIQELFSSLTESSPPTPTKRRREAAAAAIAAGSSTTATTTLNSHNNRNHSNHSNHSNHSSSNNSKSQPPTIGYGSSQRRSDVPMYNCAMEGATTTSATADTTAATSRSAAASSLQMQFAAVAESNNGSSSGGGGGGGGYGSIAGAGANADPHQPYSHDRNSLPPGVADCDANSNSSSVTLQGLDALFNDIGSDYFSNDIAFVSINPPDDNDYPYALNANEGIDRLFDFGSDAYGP

B1: purified Drosophila Sd (in vitro binding assay) (natural protein)
chain: MKNITSSSTCSTGLLQLQNNLSCSELEVAEKTEQQAVGPGTIPSPWTPVNAGPPGALGSADTNGSMVDSKNLDVGDMSDDEKDLSSADAEGVWSPDIEQSFQEALSIYPPCGRRKIILSDEGKMYGRNELIARYIKLRTGKTRTRKQVSSHIQVLARRKLREIQAKIKVQFWQPGLQPSTSQDFYDYSIKPFPQPPYPAGKTSTAVSGDETGIPPSQLPWEGRAIATHKFRLLEFTAFMEIQRDEIYHRHLFVQLGGKPSFSDPLLETVDIRQIFDKFPEKSGGLKDLYEKGPQNAFYLVKCWADLNTDLTTGSETGDFYGVTSQYESNENVVLVCSTIVCSFGKQVVEKVESEYSRLENNRYVYRIQRSPMCEYMINFIQKLKNLPERYMMNSVLENFTILQVMRARETQETLLCIAYVFEVAAQNSGTTHHIYRLIKE
B1: binds.
